PMC2116111

Target: 420-kD polypeptide (human alpha 2-macroglobulin receptor) (human (endogenous in placenta)) (UniProt Q07954)
Experiment: ELISA

UniProt Q07954, sequence (Q07954 20-4544): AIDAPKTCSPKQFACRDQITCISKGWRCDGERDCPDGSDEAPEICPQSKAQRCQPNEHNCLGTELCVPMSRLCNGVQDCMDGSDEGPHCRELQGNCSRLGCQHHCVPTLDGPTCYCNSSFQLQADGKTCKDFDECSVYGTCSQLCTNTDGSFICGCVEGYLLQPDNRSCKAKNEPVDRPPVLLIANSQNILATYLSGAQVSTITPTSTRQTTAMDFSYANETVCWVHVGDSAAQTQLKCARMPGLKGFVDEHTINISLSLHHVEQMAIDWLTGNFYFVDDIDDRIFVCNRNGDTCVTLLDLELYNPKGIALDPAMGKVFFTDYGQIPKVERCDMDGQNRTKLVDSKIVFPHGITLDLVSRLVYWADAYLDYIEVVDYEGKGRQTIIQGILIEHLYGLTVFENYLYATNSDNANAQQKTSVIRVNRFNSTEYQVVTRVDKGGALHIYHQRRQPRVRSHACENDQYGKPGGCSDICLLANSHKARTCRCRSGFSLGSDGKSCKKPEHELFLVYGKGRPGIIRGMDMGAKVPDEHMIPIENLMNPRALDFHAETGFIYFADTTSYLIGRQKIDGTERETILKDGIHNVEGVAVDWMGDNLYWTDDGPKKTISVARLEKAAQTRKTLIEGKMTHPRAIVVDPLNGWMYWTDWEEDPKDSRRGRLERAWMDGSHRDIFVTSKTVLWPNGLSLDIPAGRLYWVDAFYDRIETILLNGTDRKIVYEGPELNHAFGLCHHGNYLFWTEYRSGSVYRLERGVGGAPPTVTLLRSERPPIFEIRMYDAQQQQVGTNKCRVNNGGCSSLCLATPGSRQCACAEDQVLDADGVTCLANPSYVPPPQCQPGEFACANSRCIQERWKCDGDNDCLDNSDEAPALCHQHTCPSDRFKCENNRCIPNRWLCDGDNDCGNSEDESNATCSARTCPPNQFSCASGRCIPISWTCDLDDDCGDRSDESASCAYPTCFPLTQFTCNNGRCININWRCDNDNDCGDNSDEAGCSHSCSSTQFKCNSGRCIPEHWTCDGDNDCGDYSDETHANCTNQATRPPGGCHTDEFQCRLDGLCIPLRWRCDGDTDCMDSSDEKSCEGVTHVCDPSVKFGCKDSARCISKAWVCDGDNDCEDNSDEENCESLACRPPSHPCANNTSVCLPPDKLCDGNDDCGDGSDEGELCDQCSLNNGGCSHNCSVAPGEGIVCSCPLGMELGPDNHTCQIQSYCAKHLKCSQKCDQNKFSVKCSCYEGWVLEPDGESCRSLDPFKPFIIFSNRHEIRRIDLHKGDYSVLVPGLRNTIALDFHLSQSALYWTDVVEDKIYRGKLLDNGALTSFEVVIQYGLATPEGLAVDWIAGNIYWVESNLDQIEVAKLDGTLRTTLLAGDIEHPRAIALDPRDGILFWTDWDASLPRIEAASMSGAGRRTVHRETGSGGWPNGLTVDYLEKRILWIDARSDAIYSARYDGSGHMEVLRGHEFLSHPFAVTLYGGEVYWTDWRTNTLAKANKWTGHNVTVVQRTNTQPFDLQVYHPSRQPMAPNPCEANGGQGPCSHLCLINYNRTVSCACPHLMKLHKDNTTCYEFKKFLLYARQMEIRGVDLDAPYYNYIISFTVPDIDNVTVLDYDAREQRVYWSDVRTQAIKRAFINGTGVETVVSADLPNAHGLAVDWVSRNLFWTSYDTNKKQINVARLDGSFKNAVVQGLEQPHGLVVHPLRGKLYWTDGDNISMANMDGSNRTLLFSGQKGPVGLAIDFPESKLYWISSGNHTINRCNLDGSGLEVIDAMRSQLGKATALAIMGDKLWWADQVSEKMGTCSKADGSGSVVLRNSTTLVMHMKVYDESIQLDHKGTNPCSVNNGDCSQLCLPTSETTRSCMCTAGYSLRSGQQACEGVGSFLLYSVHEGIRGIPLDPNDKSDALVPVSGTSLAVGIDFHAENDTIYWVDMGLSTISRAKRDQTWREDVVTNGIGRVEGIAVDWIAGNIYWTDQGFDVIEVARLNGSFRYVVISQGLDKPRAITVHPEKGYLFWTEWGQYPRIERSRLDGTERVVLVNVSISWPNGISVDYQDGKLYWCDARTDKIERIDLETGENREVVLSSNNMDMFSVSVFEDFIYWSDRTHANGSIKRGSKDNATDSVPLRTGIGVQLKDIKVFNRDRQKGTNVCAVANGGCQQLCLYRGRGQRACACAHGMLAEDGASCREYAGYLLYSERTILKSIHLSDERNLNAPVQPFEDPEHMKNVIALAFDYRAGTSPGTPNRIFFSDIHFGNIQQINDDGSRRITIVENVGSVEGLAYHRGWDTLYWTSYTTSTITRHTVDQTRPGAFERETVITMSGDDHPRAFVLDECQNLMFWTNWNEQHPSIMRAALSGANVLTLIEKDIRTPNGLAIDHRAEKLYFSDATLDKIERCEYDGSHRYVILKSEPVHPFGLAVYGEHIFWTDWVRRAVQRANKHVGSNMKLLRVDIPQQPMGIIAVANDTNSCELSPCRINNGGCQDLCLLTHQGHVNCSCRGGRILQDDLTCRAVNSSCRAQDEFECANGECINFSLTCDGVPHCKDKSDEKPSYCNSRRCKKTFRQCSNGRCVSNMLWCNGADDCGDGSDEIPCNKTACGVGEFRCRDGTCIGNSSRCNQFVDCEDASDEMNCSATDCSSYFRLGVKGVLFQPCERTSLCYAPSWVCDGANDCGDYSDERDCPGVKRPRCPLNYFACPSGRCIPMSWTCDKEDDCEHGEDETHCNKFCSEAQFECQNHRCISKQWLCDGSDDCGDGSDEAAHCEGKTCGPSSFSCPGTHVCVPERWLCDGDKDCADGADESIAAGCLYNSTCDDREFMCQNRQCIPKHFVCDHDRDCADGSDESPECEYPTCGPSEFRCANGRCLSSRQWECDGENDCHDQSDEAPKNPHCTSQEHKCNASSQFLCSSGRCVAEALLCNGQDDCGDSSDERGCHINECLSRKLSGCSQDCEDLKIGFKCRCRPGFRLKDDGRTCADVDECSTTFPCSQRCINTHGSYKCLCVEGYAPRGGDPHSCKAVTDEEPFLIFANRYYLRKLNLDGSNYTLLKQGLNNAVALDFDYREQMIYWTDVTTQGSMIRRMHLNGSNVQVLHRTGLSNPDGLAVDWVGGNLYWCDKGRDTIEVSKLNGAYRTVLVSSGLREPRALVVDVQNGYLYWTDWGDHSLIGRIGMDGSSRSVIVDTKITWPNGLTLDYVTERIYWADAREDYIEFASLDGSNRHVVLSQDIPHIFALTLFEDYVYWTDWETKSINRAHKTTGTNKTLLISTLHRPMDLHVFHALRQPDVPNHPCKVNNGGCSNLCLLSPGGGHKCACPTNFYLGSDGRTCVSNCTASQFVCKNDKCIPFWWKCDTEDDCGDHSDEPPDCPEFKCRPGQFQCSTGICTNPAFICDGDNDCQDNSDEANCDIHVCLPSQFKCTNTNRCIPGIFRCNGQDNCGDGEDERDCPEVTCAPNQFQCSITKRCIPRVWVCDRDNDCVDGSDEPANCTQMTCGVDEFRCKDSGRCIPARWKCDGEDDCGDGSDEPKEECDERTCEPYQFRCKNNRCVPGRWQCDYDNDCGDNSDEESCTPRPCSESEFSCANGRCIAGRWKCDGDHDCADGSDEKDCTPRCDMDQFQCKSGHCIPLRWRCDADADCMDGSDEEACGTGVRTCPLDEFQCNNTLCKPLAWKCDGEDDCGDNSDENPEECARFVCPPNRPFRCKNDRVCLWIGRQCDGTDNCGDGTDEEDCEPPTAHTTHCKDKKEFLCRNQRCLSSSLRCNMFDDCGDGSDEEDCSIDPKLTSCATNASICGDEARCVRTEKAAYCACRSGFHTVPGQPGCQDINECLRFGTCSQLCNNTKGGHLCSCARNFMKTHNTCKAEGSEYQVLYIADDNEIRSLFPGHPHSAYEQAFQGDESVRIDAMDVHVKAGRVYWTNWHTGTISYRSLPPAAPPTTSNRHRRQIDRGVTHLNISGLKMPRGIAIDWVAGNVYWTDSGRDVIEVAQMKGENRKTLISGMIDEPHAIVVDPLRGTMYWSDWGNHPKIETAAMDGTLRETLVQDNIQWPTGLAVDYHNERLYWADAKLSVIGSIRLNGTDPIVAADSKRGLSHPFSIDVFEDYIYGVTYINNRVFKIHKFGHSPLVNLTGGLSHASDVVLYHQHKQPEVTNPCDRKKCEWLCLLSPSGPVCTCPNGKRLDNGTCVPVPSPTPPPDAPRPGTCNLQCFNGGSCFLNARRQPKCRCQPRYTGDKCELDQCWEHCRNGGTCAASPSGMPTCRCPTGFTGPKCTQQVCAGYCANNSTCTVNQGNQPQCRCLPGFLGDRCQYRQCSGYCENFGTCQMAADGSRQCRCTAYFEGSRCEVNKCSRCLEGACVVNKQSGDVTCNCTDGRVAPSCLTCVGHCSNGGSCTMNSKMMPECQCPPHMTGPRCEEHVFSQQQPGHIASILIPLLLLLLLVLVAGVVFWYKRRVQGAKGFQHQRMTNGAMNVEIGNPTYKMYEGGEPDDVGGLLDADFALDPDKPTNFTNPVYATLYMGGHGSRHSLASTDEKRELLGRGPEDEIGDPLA

Kd: 70 nM
Substance: alpha 2-macroglobulin-trypsin complex (from UniProt P01023 24-1474)
